From publication PMC11061198, “Polyphosphate and tyrosine phosphorylation in the N-terminal domain of the human mitochondrial Lon protease disrupts its functions” (Scientific Reports, 2024)

Molecular target: the molecule itself
Experiment: cryo-EM structure; ADP-bound hLon variants, 1.3 mg/ml, single-particle cryo-EM (cryoSPARC); homo-hexamer

B1: human Lon protease Y394E phosphorylation-mimicking mutant (enzyme, UniProt P36776 68-959, looked up)
chain: FWEASSRGGGAFSGGEDASEGGAEEGAGGAGGSAGAGEGPVITALTPMTIPDVFPHLPLIAITRNPVFPRFIKIIEVKNKKLVELLRRKVRLAQPYVGVFLKRDDSNESDVVESLDEIYHTGTFAQIHEMQDLGDKLRMIVMGHRRVHISRQLEVEPEEPEAENKHKPRRKSKRGKKEAEDELSARHPAELAMEPTPELPAEVLMVEVENVVHEDFQVTEEVKALTAEIVKTIRDIIALNPLYRESVLQMMQAGQRVVDNPIYLSDMGAALTGAESHELQDVLEETNIPKRLYKALSLLKKEFELSKLQQRLGREVEEKIKQTHRKELLQEQLKIIKKELGLEKDDKDAIEEKFRERLKELVVPKHVMDVVDEELSKLGLLDNHSSEFNVTRNYLDWLTSIPWGKYSNENLDLARAQAVLEEDHYGMEDVKKRILEFIAVSQLRGSTQGKILCFYGPPGVGKTSIARSIARALNREYFRFSVGGMTDVAEIKGHRRTYVGAMPGKIIQCLKKTKTENPLILIDEVDKIGRGYQGDPSSALLELLDPEQNANFLDHYLDVPVDLSKVLFICTANVTDTIPEPLRDRMEMINVSGYVAQEKLAIAERYLVPQARALCGLDESKAKLSSDVLTLLIKQYCRESGVRNLQKQVEKVLRKSAYKIVSGEAESVEVTPENLQDFVGKPVFTVERMYDVTPPGVVMGLAWTAMGGSTLFVETSLRRPQDKDAKGDKDGSLEVTGQLGEVMKESARIAYTFARAFLMQHAPANDYLVTSHIHLHVPEGATPKDGPSAGCTIVTALLSLAMGRPVRQNLAMTGEVSLTGKILPVGGIKEKTIAAKRAGVTCIVLPAENKKDFYDLAAFITEGLEVHFVEHYREIFDIAFPDEQAEALAVER
notes: human mitochondrial Lon protease (LONP1) lacking the N-terminal MTS, with Y394E; also called hLon Y394E; source: E. coli Rosetta 2 (DE3) or E. coli C321 (DE3), purified (NiNTA agarose, Superose 6 SEC)
  stoichiometry N: 6
